Data from the supplement of paper PMC5998384.

Legend:
HeLa Kyoto [1] = test: solubility in G1/S (NP-40 vs SDS abundance) (log2 ratio); higher = more soluble; conditions: cell cycle stage: G1/S
HeLa Kyoto [2] = test: thermal stability score vs G1/S (z-score of summed log2 fold changes over temperatures); higher = more thermally stable than in G1/S
HeLa Kyoto [3] = test: solubility change mitosis vs G1/S (difference of NP-40 vs SDS log2 ratios) (log2 ratio difference); higher = more soluble in mitosis
[4] = cell cycle stage: early G1 (4.5 h after nocodazole release)
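For solubility change mitosis vs G1/S (difference of NP-40 vs SDS log2 ratios) in this document: synchronized HeLa Kyoto cells (double thymidine block for G1/S, nocodazole release for mitosis), protein amounts in NP-40 versus SDS lysates quantified by mass spectrometry, three biological replicates.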
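For solubility in G1/S (NP-40 vs SDS abundance) in this document: HeLa Kyoto cells arrested at G1/S by double thymidine block, proteins quantified by TMT10plex mass spectrometry in mild NP-40 versus SDS extracts, three biological replicates.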
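For thermal stability score vs G1/S (z-score of summed log2 fold changes over temperatures) in this document: synchronized HeLa Kyoto cells, proteins quantified by TMT10plex mass spectrometry, three biological replicates, mitosis taken 0.5 h after nocodazole release, G1/S directly after double thymidine block.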

For “MSDILRELLCVSEKAANIARACRQQEALFQLLIEEKKEGEKNKKFAVDFKTLADVLVQEVIKQNMENKFPGLEKNIFGEESNEFTNDWGEKITLRLCSTEEETAELLSKVLNGNKVASEALARVVHQDVAFTDPTLDSTEINVPQDILGIWVDPIDSTYQYIKGSADIKSNQGIFPCGLQCVTILIGVYDIQTGVPLMGVINQPFVSRDPNTLRWKGQCYWGLSYMGTNMHSLQLTISRRNGSETHTGNTGSEAAFSPSFSAVISTSEKETIKAALSRVCGDRIFGAAGAGYKSLCVVQGLVDIYIFSEDTTFKWDSCAAHAILRAMGGGIVDLKECLERNPETGLDLPQLVYHVENEGAAGVDRWANKGGLIAYRSRKRLETFLSLLVQNLAPAETHT [INPP1]”, the “solubility in G1/S (log2)” value (HeLa Kyoto [1]) was 0.0309, the thermal stability score (HeLa Kyoto [2]; [4]) was 0.000408 and the thermal stability score (HeLa Kyoto [2]; cell cycle stage: mitosis) was -0.083. The “solubility change mitosis (log2)” value (HeLa Kyoto [3]) was -0.114.
“MAMQMQLEANADTSVEEESFGPQPISRLEQCGINANDVKKLEEAGFHTVEAVAYAPKKELINIKGISEAKADKILAEAAKLVPMGFTTATEFHQRRSEIIQITTGSKELDKLLQGGIETGSITEMFGEFRTGKTQICHTLAVTCQLPIDRGGGEGKAMYIDTEGTFRPERLLAVAERYGLSGSDVLDNVAYARAFNTDHQTQLLYQASAMMVESRYALLIVDSATALYRTDYSGRGELSARQMHLARFLRMLLRLADEFGVAVVITNQVVAQVDGAAMFAADPKKPIGGNIIAHASTTRLYLRKGRGETRICKIYDSPCLPEAEAMFAINADGVGDAKD [RAD51]” was tested, and the “solubility in G1/S (log2)” value (HeLa Kyoto [1]) was -0.073, the thermal stability score (HeLa Kyoto [2]; [4]) was -1.12 and the thermal stability score (HeLa Kyoto [2]; cell cycle stage: mitosis) was -1.89. For the same sequence, the “solubility change mitosis (log2)” value (HeLa Kyoto [3]) was -0.238.
“MAAVDSDVESLPRGGFRCCLCHVTTANRPSLDAHLGGRKHRHLVELRAARKAQGLRSVFVSGFPRDVDSAQLSEYFLAFGPVASVVMDKDKGVFAIVEMGDVGAREAVLSQSQHSLGGHRLRVRPREQKEFQSPASKSPKGAAPDSHQLAKALAEAADVGAQMIKLVGLRELSEAERQLRSLVVALMQEVFTEFFPGCVVHPFGSSINSFDVHGCDLDLFLDLGDLEEPQPVPKAPESPSLDSALASPLDPQALACTPASPPDSQPPASPQDSEALDFETPSSSLAPQTPDSALASETLASPQSLPPASPLLEDREEGDLGKASELAETPKEEKAEGAAMLELVGSILRGCVPGVYRVQTVPSARRPVVKFCHRPSGLHGDVSLSNRLALHNSRFLSLCSELDGRVRPLVYTLRCWAQGRGLSGSGPLLSNYALTLLVIYFLQTRDPPVLPTVSQLTQKAGEGEQVEVDGWDCSFPRDASRLEPSINVEPLSSLLAQFFSCVSCWDLRGSLLSLREGQALPVAGGLPSNLWEGLRLGPLNLQDPFDLSHNVAANVTSRVAGRLQNCCRAAANYCRSLQYQRRSSRGRDWGLLPLLQPSSPSSLLSATPIPLPLAPFTQLTAALVQVFREALGCHIEQATKRTRSEGGGTGESSQGGTSKRLKVDGQKNCCEEGKEEQQGCAGDGGEDRVEEMVIEVGEMVQDWAMQSPGQPGDLPLTTGKHGAPGEEGQPSHAALAERGPKGHEAAQEWSQGEAGKGASLPSSASWRCALWHRVWQGRRRARRRLQQQTKEGAGGGAGTRAGWLATEAQVTQELKGLSGGEERPETEPLLSFVASVSPADRMLTVTPLQDPQGLFPDLHHFLQVFLPQAIRHLK [TUT1]” was tested, and the “solubility in G1/S (log2)” value (HeLa Kyoto [1]) was -0.00805, the thermal stability score (HeLa Kyoto [2]; [4]) was 0.3 and the thermal stability score (HeLa Kyoto [2]; cell cycle stage: mitosis) was 1.52. The “solubility change mitosis (log2)” value (HeLa Kyoto [3]) was 0.00387.
With “MAALTIATGTGNWFSALALGVTLLKCLLIPTYHSTDFEVHRNWLAITHSLPISQWYYEATSEWTLDYPPFFAWFEYILSHVAKYFDQEMLNVHNLNYSSSRTLLFQRFSVIFMDVLFVYAVRECCKCIDGKKVGKELTEKPKFILSVLLLWNFGLLIVDHIHFQYNGFLFGLMLLSIARLFQKRHMEGAFLFAVLLHFKHIYLYVAPAYGVYLLRSYCFTANKPDGSIRWKSFSFVRVISLGLVVFLVSALSLGPFLALNQLPQVFSRLFPFKRGLCHAYWAPNFWALYNALDKVLSVIGLKLKFLDPNNIPKASMTSGLVQQFQHTVLPSVTPLATLICTLIAILPSIFCLWFKPQGPRGFLRCLTLCALSSFMFGWHVHEKAILLAILPMSLLSVGKAGDASIFLILTTTGHYSLFPLLFTAPELPIKILLMLLFTIYSISSLKTLFRKEKPLFNWMETFYLLGLGPLEVCCEFVFPFTSWKVKYPFIPLLLTSVYCAVGITYAWFKLYVSVLIDSAIGKTKKQ [ALG8]” the “solubility in G1/S (log2)” value (HeLa Kyoto [1]) was -0.668, the thermal stability score (HeLa Kyoto [2]; [4]) was -0.785 and the thermal stability score (HeLa Kyoto [2]; cell cycle stage: mitosis) was -1.28. The “solubility change mitosis (log2)” value (HeLa Kyoto [3]) was -0.131.
“MNKGWLELESDPGLFTLLVEDFGVKGVQVEEIYDLQSKCQGPVYGFIFLFKWIEERRSRRKVSTLVDDTSVIDDDIVNNMFFAHQLIPNSCATHALLSVLLNCSSVDLGPTLSRMKDFTKGFSPESKGYAIGNAPELAKAHNSHARPEPRHLPEKQNGLSAVRTMEAFHFVSYVPITGRLFELDGLKVYPIDHGPWGEDEEWTDKARRVIMERIGLATAGEPYHDIRFNLMAVVPDRRIKYEARLHVLKVNRQTVLEALQQLIRVTQPELIQTHKSQESQLPEESKSASNKSPLVLEANRAPAASEGNHTDGAEEAAGSCAQAPSHSPPNKPKLVVKPPGSSLNGVHPNPTPIVQRLPAFLDNHNYAKSPMQEEEDLAAGVGRSRVPVRPPQQYSDDEDDYEDDEEDDVQNTNSALRYKGKGTGKPGALSGSADGQLSVLQPNTINVLAEKLKESQKDLSIPLSIKTSSGAGSPAVAVPTHSQPSPTPSNESTDTASEIGSAFNSPLRSPIRSANPTRPSSPVTSHISKVLFGEDDSLLRVDCIRYNRAVRDLGPVISTGLLHLAEDGVLSPLALTEGGKGSSPSIRPIQGSQGSSSPVEKEVVEATDSREKTGMVRPGEPLSGEKYSPKELLALLKCVEAEIANYEACLKEEVEKRKKFKIDDQRRTHNYDEFICTFISMLAQEGMLANLVEQNISVRRRQGVSIGRLHKQRKPDRRKRSRPYKAKRQ [BAP1]” was tested, and the “solubility in G1/S (log2)” value (HeLa Kyoto [1]) was 0.152, the thermal stability score (HeLa Kyoto [2]; [4]) was 0.51 and the thermal stability score (HeLa Kyoto [2]; cell cycle stage: mitosis) was 0.853. The “solubility change mitosis (log2)” value (HeLa Kyoto [3]) was -0.138.
In the case of “MATAPSYPAGLPGSPGPGSPPPPGGLELQSPPPLLPQIPAPGSGVSFHIQIGLTREFVLLPAASELAHVKQLACSIVDQKFPECGFYGLYDKILLFKHDPTSANLLQLVRSSGDIQEGDLVEVVLSASATFEDFQIRPHALTVHSYRAPAFCDHCGEMLFGLVRQGLKCDGCGLNYHKRCAFSIPNNCSGARKRRLSSTSLASGHSVRLGTSESLPCTAEELSRSTTELLPRRPPSSSSSSSASSYTGRPIELDKMLLSKVKVPHTFLIHSYTRPTVCQACKKLLKGLFRQGLQCKDCKFNCHKRCATRVPNDCLGEALINGDVPMEEATDFSEADKSALMDESEDSGVIPGSHSENALHASEEEEGEGGKAQSSLGYIPLMRVVQSVRHTTRKSSTTLREGWVVHYSNKDTLRKRHYWRLDCKCITLFQNNTTNRYYKEIPLSEILTVESAQNFSLVPPGTNPHCFEIVTANATYFVGEMPGGTPGGPSGQGAEAARGWETAIRQALMPVILQDAPSAPGHAPHRQASLSISVSNSQIQENVDIATVYQIFPDEVLGSGQFGVVYGGKHRKTGRDVAVKVIDKLRFPTKQESQLRNEVAILQSLRHPGIVNLECMFETPEKVFVVMEKLHGDMLEMILSSEKGRLPERLTKFLITQILVALRHLHFKNIVHCDLKPENVLLASADPFPQVKLCDFGFARIIGEKSFRRSVVGTPAYLAPEVLLNQGYNRSLDMWSVGVIMYVSLSGTFPFNEDEDINDQIQNAAFMYPASPWSHISAGAIDLINNLLQVKMRKRYSVDKSLSHPWLQEYQTWLDLRELEGKMGERYITHESDDARWEQFAAEHPLPGSGLPTDRDLGGACPPQDHDMQGLAERISVL [PRKD2]”, the “solubility in G1/S (log2)” value (HeLa Kyoto [1]) is reported as -0.115, the thermal stability score (HeLa Kyoto [2]; [4]) is reported as 0.521 and the thermal stability score (HeLa Kyoto [2]; cell cycle stage: mitosis) is reported as 0.296. The “solubility change mitosis (log2)” value (HeLa Kyoto [3]) was -0.188.
“MDLHRAAFKMENSSYLPNPLASPALMVLASTAEASRDASIPCQQPRPFGVPVSVDKDVHIPFTNGSYTFASMYHRQGGVPGTFANRDFPPSLLHLHPQFAPPNLDCTPISMLNHSGVGAFRPFASTEDRESYQSAFTPAKRLKNCHDTESPHLRFSDADGKEYDFGTQLPSSSPGSLKVDDTGKKIFAVSGLISDREASSSPEDRNDRCKKKAAALFDSQAPICPICQVLLRPSELQEHMEQELEQLAQLPSSKNSLLKDAMAPGTPKSLLLSASIKREGESPTASPHSSATDDLHHSDRYQTFLRVRANRQTRLNARIGKMKRRKQDEGQREGSCMAEDDAVDIEHENNNRFEEYEWCGQKRIRATTLLEGGFRGSGFIMCSGKENPDSDADLDVDGDDTLEYGKPQYTEADVIPCTGEEPGEAKEREALRGAVLNGGPPSTRITPEFSKWASDEMPSTSNGESSKQEAMQKTCKNSDIEKITEDSAVTTFEALKARVRELERQLSRGDRYKCLICMDSYSMPLTSIQCWHVHCEECWLRTLGAKKLCPQCNTITAPGDLRRIYL [RNF220]” was tested, and the “solubility in G1/S (log2)” value (HeLa Kyoto [1]) was 0.298, the thermal stability score (HeLa Kyoto [2]; [4]) was 0.0151 and the thermal stability score (HeLa Kyoto [2]; cell cycle stage: mitosis) was -0.144. The “solubility change mitosis (log2)” value (HeLa Kyoto [3]) was -0.0624.
